Data from patent US20200140562A1 (Innovent, published 2020).

T1: human OX40 on cells (CHO-hOX40, 293HEK-hOX40, Jurkat-hOX40, activated primary CD4+ T cells) (human, UniProt P43489 29-277)
T1 sequence (looked up): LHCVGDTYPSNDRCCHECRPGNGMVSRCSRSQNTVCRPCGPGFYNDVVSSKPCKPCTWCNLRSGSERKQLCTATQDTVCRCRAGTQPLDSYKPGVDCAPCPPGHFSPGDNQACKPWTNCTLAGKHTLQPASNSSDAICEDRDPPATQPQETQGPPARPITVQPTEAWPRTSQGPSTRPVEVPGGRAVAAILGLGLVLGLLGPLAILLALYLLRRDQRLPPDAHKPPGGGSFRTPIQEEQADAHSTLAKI

T2: mouse OX40Fc (Acro Biosystems) (mouse, UniProt P47741 20-211, limits assumed)
T2 construct: Bought; not shown: Fc
T2 sequence (looked up): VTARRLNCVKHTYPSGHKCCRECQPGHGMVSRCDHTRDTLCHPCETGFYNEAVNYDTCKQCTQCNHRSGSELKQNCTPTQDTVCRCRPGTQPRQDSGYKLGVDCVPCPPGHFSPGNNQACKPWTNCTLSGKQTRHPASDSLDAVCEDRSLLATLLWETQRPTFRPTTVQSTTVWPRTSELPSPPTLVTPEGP

B1: ADI-23515, IgG2 format (antibody)
heavy: QVQLQESGPGLVKPSQTLSLTCTVSGGSIRSGAYYWSWIRQHPGKGLEWIGYIYYDGQTYYNPSLKSRVTISVDTSKNQFSLKLSSVTAADTAVYYCARDVGYPHYYGMDVWGQGTTVTVSSASTKGPSVFPLAPCSRSTSESTAALGCLVKDYFPEPVTVSWNSGALTSGVHTFPAVLQSSGLYSLSSVVTVPSSNFGTQTYTCNVDHKPSNTKVDKTVERKCCVECPPCPAPPVAGPSVFLFPPKPKDTLMISRTPEVTCVVVDVSHEDPEVQFNWYVDGVEVHNAKTKPREEQFNSTFRVVSVLTVVHQDWLNGKEYKCKVSNKGLPAPIEKTISKTKGQPREPQVYTLPPSREEMTKNQVSLTCLVKGFYPSDIAVEWESNGQPENNYKTTPPMLDSDGSFFLYSKLTVDKSRWQQGNVFSCSVMHEALHNHYTQKSLSLSPG
light: EIVLTQSPGTLSLSPGERATLSCRASQSVSSSYLAWYQQKPGQAPRLLIYGASSRATGIPDRFSGSGSGTDFTLTISRLEPEDFAVYYCQQSERSPFTFGGGTKVEIKRTVAAPSVFIFPPSDEQLKSGTASVVCLLNNFYPREAKVQWKVDNALQSGNSQESVTEQDSKDSTYSLSSTLTLSKADYEKHKVYACEVTHQGLSSPVTKSFNRGEC
B2: ADI-20112, IgG2 format (antibody)
heavy: QVQLVESGGGVVQPGRSLRLSCAASGFTFSSYGMHWVRQAPGKGLEWVAVISYDGSNKYYADSVKGRFTISRDNSKNTLYLQMNSLRAEDTAVYYCARGRPWYSETGTSAFDIWGQGTMVTVSSASTKGPSVFPLAPCSRSTSESTAALGCLVKDYFPEPVTVSWNSGALTSGVHTFPAVLQSSGLYSLSSVVTVPSSNFGTQTYTCNVDHKPSNTKVDKTVERKCCVECPPCPAPPVAGPSVFLFPPKPKDTLMISRTPEVTCVVVDVSHEDPEVQFNWYVDGVEVHNAKTKPREEQFNSTFRVVSVLTVVHQDWLNGKEYKCKVSNKGLPAPIEKTISKTKGQPREPQVYTLPPSREEMTKNQVSLTCLVKGFYPSDIAVEWESNGQPENNYKTTPPMLDSDGSFFLYSKLTVDKSRWQQGNVFSCSVMHEALHNHYTQKSLSLSPG
light: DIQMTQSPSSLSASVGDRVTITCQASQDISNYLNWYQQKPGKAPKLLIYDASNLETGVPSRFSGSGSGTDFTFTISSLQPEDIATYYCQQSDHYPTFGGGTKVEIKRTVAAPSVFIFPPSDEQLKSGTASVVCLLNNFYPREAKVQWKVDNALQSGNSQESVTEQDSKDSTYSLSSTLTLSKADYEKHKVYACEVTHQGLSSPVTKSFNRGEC
notes: Made in 293HEK or CHO cells; also called ADI-20112-g2
B3: ADI-25654, IgG1 format (antibody, V domains shown)
VH: QVQLVESGGGVVQPGRSLRLSCAASGFTFRSYDMHWVRQAPGKGLEWVAYIAYDGSNKYYADSVKGRFTISRDNSKNTLYLQMNSLRAEDTAVYYCARGRPWYSETGTSAFDIWGQGTMVTVSS
VL: DIQMTQSPSSLSASVGDRVTITCQASQDISNYLNWYQQKPGKAPKLLIYDASNLETGVPSRFSGSGSGTDFTFTISSLQPEDIATYYCQQSDHYPTFGGGTKVEIKR
notes: Made in yeast or CHO cells; also called ADI-25654-g1
B4: ADI-20051, IgG2 format (antibody)
heavy: QVQLQQWGAGLLKPSETLSLTCAVYGGSFSGYYWSWIRQPPGKGLEWIGEIDHSGSTNYNPSLKSRVTISVDTSKNQFSLKLSSVTAADTAVYYCARDGGGGYASPFDYWGQGTLVTVSSASTKGPSVFPLAPCSRSTSESTAALGCLVKDYFPEPVTVSWNSGALTSGVHTFPAVLQSSGLYSLSSVVTVPSSNFGTQTYTCNVDHKPSNTKVDKTVERKCCVECPPCPAPPVAGPSVFLFPPKPKDTLMISRTPEVTCVVVDVSHEDPEVQFNWYVDGVEVHNAKTKPREEQFNSTFRVVSVLTVVHQDWLNGKEYKCKVSNKGLPAPIEKTISKTKGQPREPQVYTLPPSREEMTKNQVSLTCLVKGFYPSDIAVEWESNGQPENNYKTTPPMLDSDGSFFLYSKLTVDKSRWQQGNVFSCSVMHEALHNHYTQKSLSLSPG
light: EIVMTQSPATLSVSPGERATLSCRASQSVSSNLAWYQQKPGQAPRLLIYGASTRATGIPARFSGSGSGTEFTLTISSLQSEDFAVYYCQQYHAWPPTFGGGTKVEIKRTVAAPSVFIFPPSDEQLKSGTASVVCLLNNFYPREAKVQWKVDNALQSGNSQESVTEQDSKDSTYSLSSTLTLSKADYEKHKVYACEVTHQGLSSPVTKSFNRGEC
notes: Made in 293HEK cells
B5: ADI-20118, IgG2 format (antibody)
heavy: QVQLVQSGAEVKKPGASVKVSCKASGYTFTSYAISWVRQAPGQGLEWMGWISAYNGNTNYAQKLQGRVTMTTDTSTSTAYMELRSLRSDDTAVYYCARSGGGSGPNWFDPWGQGTLVTVSSASTKGPSVFPLAPCSRSTSESTAALGCLVKDYFPEPVTVSWNSGALTSGVHTFPAVLQSSGLYSLSSVVTVPSSNFGTQTYTCNVDHKPSNTKVDKTVERKCCVECPPCPAPPVAGPSVFLFPPKPKDTLMISRTPEVTCVVVDVSHEDPEVQFNWYVDGVEVHNAKTKPREEQFNSTFRVVSVLTVVHQDWLNGKEYKCKVSNKGLPAPIEKTISKTKGQPREPQVYTLPPSREEMTKNQVSLTCLVKGFYPSDIAVEWESNGQPENNYKTTPPMLDSDGSFFLYSKLTVDKSRWQQGNVFSCSVMHEALHNHYTQKSLSLSPG
light: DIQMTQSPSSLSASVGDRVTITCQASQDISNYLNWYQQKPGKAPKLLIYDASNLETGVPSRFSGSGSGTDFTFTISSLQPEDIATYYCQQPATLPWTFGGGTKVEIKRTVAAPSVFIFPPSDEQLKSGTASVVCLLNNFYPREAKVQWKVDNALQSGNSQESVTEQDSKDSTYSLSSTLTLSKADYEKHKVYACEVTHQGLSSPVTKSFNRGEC
notes: Made in 293HEK cells

Assays:
[1] = biological target: T1, human OX40 on cells (CHO-hOX40, …); assay: cell-based or functional assay
[2] = biological target: T1, human OX40 on cells (CHO-hOX40, …); assay: flow cytometry, CHO-hOX40, 25 nM
[3] = biological target: T1, human OX40 on cells (CHO-hOX40, …); assay: flow cytometry, CHO-hOX40, 200 nM
[4] = biological target: T1, human OX40 on cells (CHO-hOX40, …); assay: flow cytometry, CHO-hOX40, 50 nM
[5] = biological target: T1, human OX40 on cells (CHO-hOX40, …); assay: flow cytometry, CHO-hOX40, 0.048828125 nM
Experimental: (§1) CHO-hOX40 cells (0.2×10⁶ cells) are incubated with the experimental antibody at 100 nM for 30 min in PBS 0.1% BSA on ice. Cells are then washed at least twice, and are incubated with a secondary antibody (PE-labelled, SouthernBiotech, at final concentration of 5 μg/ml) in PBS 0.1% BSA for 30 min on ice (protected from light). Cells are washed at least twice and analysed via flow cytometry. Flow cytometry is performed on a Canto II system (BD Biosciences) and MFIs are calculated accordingly.

[6] = biological target: T1, human OX40 on cells (CHO-hOX40, …); assay: flow cytometry, CHO-hOX40, IgG2 made in 293HEK
Experimental: as §1

[7] = biological target: T1, human OX40 on cells (CHO-hOX40, …); assay: flow cytometry, CHO-hOX40, 0.09765625 nM
Experimental: as §1

[8] = biological target: T1, human OX40 on cells (CHO-hOX40, …); assay: flow cytometry, CHO-hOX40, 0.390625 nM
Experimental: as §1

[9] = biological target: T1, human OX40 on cells (CHO-hOX40, …); assay: flow cytometry, CHO-hOX40, 12.5 nM
[10] = biological target: T1, human OX40 on cells (CHO-hOX40, …); assay: flow cytometry, CHO-hOX40, 0.024414063 nM
Experimental: as §1

[11] = biological target: T1, human OX40 on cells (CHO-hOX40, …); assay: flow cytometry, CHO-hOX40, 0.1953125 nM
Experimental: as §1

[12] = biological target: T1, human OX40 on cells (CHO-hOX40, …); assay: flow cytometry, CHO-hOX40, 1.5625 nM
Experimental: as §1

[13] = biological target: T1, human OX40 on cells (CHO-hOX40, …); assay: flow cytometry, CHO-hOX40, 0.78125 nM
Experimental: as §1

[14] = biological target: T1, human OX40 on cells (CHO-hOX40, …); assay: flow cytometry, CHO-hOX40, 6.25 nM
Experimental: as §1

[15] = biological target: T1, human OX40 on cells (CHO-hOX40, …); assay: flow cytometry, CHO-hOX40, 3.125 nM
Experimental: as §1

[16] = biological target: T1, human OX40 on cells (CHO-hOX40, …); assay: flow cytometry, CHO-hOX40, 100 nM
[17] = biological target: T1, human OX40 on cells (CHO-hOX40, …); assay: flow cytometry, MFI on CHO-hOX40 over wild-type CHO
[18] = biological target: T3, cyno OX40_Fc (Acro Biosystems) (cyno); assay: BLI, IgG1 on tip, cyno OX40-Fc 100 nM, avid
T3 construct: Bought
Experimental: Sensors with loaded antibodies were exposed to 100 nM OX40 antigens for 5 min, afterwards they were transferred to assay buffer for dissociation of 5 min for off-rate measurement. Kinetics was analysed using the 1:1 binding model.

[19] = biological target: T4, human OX40_Fc (R&D Systems) (human, UniProt P43489 29-216); assay: BLI, IgG1 on tip, hOX40-Fc 50 nM, avid
T4 construct: Bought

[20] = biological target: T1, human OX40 on cells (CHO-hOX40, …); assay: flow cytometry, CHO-hOX40, 100 nM; remark: listed apart in the source
[21] = biological target: T2, mouse OX40Fc (Acro Biosystems); assay: BLI, IgG1 on tip, mouse OX40-Fc in solution

Row | Binder | MFI [2] | MFI [3] | MFI [4] | MFI [5] | EC50 [6] | MFI [7] | MFI [8] | MFI [9] | MFI [10] | MFI [11] | MFI [12] | MFI [13] | MFI [14] | EC50, NFkB-luciferase reporter in Jurkat-hOX40 mixed with Raji cells [1] | MFI [15] | MFI [16] | other results
1 | B1 | – | – | – | – | – | – | – | – | – | – | – | – | – | – | – | – | EC50, NFkB-luciferase reporter in Jurkat-hOX40 [1]: 0.39 nM
2 | B2 | 1.83e+06 MFI | 1.79e+06 MFI | 1.55e+06 MFI | 25700 MFI | 2.78 nM | 48500 MFI | 189000 MFI | 1.34e+06 MFI | 24600 MFI | 94200 MFI | 602000 MFI | 314000 MFI | 1.43e+06 MFI | 0.246 nM | 985000 MFI | 1.78e+06 MFI | –
3 | B3 | – | – | – | – | – | – | – | – | – | – | – | – | – | 0.0282 nM | – | – | Fold difference [17]: 2260 fold; Kd [18]: 1.53 nM; Kd [19]: 0.283 nM; CHO-OX40 binding intensity (MFI) [20]: 252000 MFI; binding result [21]: no binding (tested: 100 nM)
4 | B4 | 2.33e+06 MFI | 2.51e+06 MFI | 2.1e+06 MFI | 19400 MFI | 5.49 nM | 40700 MFI | 156000 MFI | 1.62e+06 MFI | 20900 MFI | 80500 MFI | 611000 MFI | 315000 MFI | 1.33e+06 MFI | – | 913000 MFI | 2.35e+06 MFI | –
5 | B5 | 1.5e+06 MFI | 1.72e+06 MFI | 1.38e+06 MFI | 18400 MFI | 5.84 nM | 36800 MFI | 120000 MFI | 1.13e+06 MFI | 16500 MFI | 60400 MFI | 352000 MFI | 207000 MFI | 889000 MFI | – | 600000 MFI | 1.53e+06 MFI | –
